According to PMC10397247:

Experiments:
[1] = target: T1, P2SHb; assay: two-hybrid library CCNG1;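 also: natural log of median RNA to DNA barcode read ratio; higher means stronger binding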
T1 chain: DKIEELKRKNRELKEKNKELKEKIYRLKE

[2] = target: T2, P3SHb; assay: two-hybrid library CCNG1;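 also: natural log of median RNA to DNA barcode read ratio; higher means stronger binding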
T2 chain: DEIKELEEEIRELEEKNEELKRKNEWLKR

[3] = target: T3, P4SHb; assay: two-hybrid library CCNG1;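 also: natural log of median RNA to DNA barcode read ratio; higher means stronger binding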
T3 chain: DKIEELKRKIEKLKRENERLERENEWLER

[4] = target: T4, P5SHb; assay: two-hybrid library CCNG1;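 also: natural log of median RNA to DNA barcode read ratio; higher means stronger binding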
T4 chain: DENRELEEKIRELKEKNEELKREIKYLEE

[5] = target: T5, P6SHb; assay: two-hybrid library CCNG1;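 also: natural log of median RNA to DNA barcode read ratio; higher means stronger binding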
T5 chain: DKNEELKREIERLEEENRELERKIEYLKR

[6] = target: T6, P7SHb; assay: two-hybrid library CCNG1;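 also: natural log of median RNA to DNA barcode read ratio; higher means stronger binding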
T6 chain: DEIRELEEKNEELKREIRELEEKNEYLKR

[7] = target: T7, P8SHb; assay: two-hybrid library CCNG1
T7 chain: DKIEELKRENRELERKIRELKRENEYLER

[8] = target: T8, P9SHb; assay: two-hybrid library CCNG1
T8 chain: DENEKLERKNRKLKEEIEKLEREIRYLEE

[9] = target: T9, 4H1388-AA; assay: two-hybrid library CCmax
T9 chain: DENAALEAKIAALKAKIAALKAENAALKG

[10] = target: T10, 4H1401-AA; assay: two-hybrid library CCmax; conditions: mean of both orientations
T10 chain: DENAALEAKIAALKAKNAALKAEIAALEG

[11] = target: T11, 4H1513-AA; assay: two-hybrid library CCmax; conditions: mean of both orientations
T11 chain: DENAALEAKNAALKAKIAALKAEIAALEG

[12] = target: T12, 4H1594-AA; assay: two-hybrid library CCmax; conditions: mean of both orientations
T12 chain: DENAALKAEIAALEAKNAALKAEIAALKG

[13] = target: T13, 4H1629-AA; assay: two-hybrid library CCmax; conditions: mean of both orientations
T13 chain: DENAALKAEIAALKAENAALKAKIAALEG

[14] = target: T14, 4H1845-AA; assay: two-hybrid library CCmax; conditions: mean of both orientations
T14 chain: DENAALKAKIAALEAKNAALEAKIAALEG

[15] = target: T15, 4H1874-AA; assay: two-hybrid library CCmax; conditions: mean of both orientations
T15 chain: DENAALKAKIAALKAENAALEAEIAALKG

[16] = target: T16, 4H2198-AA; assay: two-hybrid library CCmax; conditions: mean of both orientations
T16 chain: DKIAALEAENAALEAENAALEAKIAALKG

[17] = target: T17, 4H2553-AA; assay: two-hybrid library CCmax; conditions: mean of both orientations
T17 chain: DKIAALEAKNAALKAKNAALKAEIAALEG

[18] = target: T18, 4H2611-AA; assay: two-hybrid library CCmax; conditions: mean of both orientations
T18 chain: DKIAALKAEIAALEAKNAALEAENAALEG

[19] = target: T19, 4H2620-AA; assay: two-hybrid library CCmax; conditions: mean of both orientations
T19 chain: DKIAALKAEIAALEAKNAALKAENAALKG

[20] = target: T20, 4H2648-AA; assay: two-hybrid library CCmax; conditions: mean of both orientations
T20 chain: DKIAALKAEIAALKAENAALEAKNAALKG

[21] = target: T21, 4H2907-AA; assay: two-hybrid library CCmax; conditions: mean of both orientations
T21 chain: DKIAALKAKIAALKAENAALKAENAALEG

[22] = target: T22, 4H3056-AA; assay: two-hybrid library CCmax; conditions: mean of both orientations
T22 chain: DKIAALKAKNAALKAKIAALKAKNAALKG

[23] = target: T23, 4H3133-AA; assay: two-hybrid library CCmax; conditions: mean of both orientations
T23 chain: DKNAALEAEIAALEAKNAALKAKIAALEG

[24] = target: T24, 4H3162-AA; assay: two-hybrid library CCmax; conditions: mean of both orientations
T24 chain: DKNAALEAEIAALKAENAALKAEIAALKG

[25] = target: T25, 4H32-AA; assay: two-hybrid library CCmax; conditions: mean of both orientations
T25 chain: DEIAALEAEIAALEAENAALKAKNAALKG

[26] = target: T26, 4H3378-AA; assay: two-hybrid library CCmax; conditions: mean of both orientations
T26 chain: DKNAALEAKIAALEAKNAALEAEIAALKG

[27] = target: T27, 4H340-AA; assay: two-hybrid library CCmax; conditions: mean of both orientations
T27 chain: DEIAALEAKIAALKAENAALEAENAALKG

[28] = target: T28, 4H3413-AA; assay: two-hybrid library CCmax; conditions: mean of both orientations
T28 chain: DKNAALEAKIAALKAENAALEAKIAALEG

[29] = target: T29, 4H3588-AA; assay: two-hybrid library CCmax; conditions: mean of both orientations
T29 chain: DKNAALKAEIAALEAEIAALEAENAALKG

[30] = target: T30, 4H3606-AA; assay: two-hybrid library CCmax; conditions: mean of both orientations
T30 chain: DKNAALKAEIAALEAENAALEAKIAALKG

[31] = target: T31, 4H3631-AA; assay: two-hybrid library CCmax; conditions: mean of both orientations
T31 chain: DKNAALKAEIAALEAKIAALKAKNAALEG

[32] = target: T32, 4H3697-AA; assay: two-hybrid library CCmax; conditions: mean of both orientations
T32 chain: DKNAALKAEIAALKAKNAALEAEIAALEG

[33] = target: T33, 4H3718-AA; assay: two-hybrid library CCmax; conditions: mean of both orientations
T33 chain: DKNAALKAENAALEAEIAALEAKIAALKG

[34] = target: T34, 4H384-AA; assay: two-hybrid library CCmax; conditions: mean of both orientations
T34 chain: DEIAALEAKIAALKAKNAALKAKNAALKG

[35] = target: T35, 4H3865-AA; assay: two-hybrid library CCmax; conditions: mean of both orientations
T35 chain: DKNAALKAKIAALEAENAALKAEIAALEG

[36] = target: T36, 4H697-AA; assay: two-hybrid library CCmax; conditions: mean of both orientations
T36 chain: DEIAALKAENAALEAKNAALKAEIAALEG

[37] = target: T37, 4H982-AA; assay: two-hybrid library CCmax; conditions: mean of both orientations
T37 chain: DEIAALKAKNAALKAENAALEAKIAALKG

[38] = target: T38, 4H1373-bH; assay: two-hybrid library CCNG1
T38 chain: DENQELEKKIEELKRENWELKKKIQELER

[39] = target: T39, 4H1449-bH; assay: two-hybrid library CCNG1
T39 chain: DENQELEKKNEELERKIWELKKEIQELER

[40] = target: T40, 4H1544-bH; assay: two-hybrid library CCNG1
T40 chain: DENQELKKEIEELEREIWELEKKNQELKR

[41] = target: T41, 4H1710-bH; assay: two-hybrid library CCNG1
T41 chain: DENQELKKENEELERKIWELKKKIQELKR

[42] = target: T42, 4H1899-bH; assay: two-hybrid library CCNG1
T42 chain: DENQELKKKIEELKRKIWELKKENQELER

[43] = target: T43, 4H1985-bH; assay: two-hybrid library CCNG1
T43 chain: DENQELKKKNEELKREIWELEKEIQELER

[44] = target: T44, 4H3162-bH; assay: two-hybrid library CCNG1
T44 chain: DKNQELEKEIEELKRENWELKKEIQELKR

[45] = target: T45, 4H3175-bH; assay: two-hybrid library CCNG1
T45 chain: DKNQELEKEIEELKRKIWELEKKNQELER

[46] = target: T46, 4H3277-bH; assay: two-hybrid library CCNG1
T46 chain: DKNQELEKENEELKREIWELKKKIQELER

[47] = target: T47, 4H3298-bH; assay: two-hybrid library CCNG1
T47 chain: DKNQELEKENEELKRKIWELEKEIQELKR

[48] = target: T48, 4H3462-bH; assay: two-hybrid library CCNG1
T48 chain: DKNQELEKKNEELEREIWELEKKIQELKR

[49] = target: T49, 4H3497-bH; assay: two-hybrid library CCNG1
T49 chain: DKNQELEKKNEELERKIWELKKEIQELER

[50] = target: T50, 4H3613-bH; assay: two-hybrid library CCNG1
T50 chain: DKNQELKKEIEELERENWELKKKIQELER

[51] = target: T51, 4H3628-bH; assay: two-hybrid library CCNG1
T51 chain: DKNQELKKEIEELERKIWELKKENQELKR

[52] = target: T52, 4H3782-bH; assay: two-hybrid library CCNG1
T52 chain: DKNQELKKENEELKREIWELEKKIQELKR

[53] = target: T53, 4H3817-bH; assay: two-hybrid library CCNG1
T53 chain: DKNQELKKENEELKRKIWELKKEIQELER

[54] = target: T54, 4H3843-bH; assay: two-hybrid library CCNG1
T54 chain: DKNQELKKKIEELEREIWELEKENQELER

[55] = target: T55, 4H3858-bH; assay: two-hybrid library CCNG1
T55 chain: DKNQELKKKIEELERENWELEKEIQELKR

[56] = target: T56, 4H3926-bH; assay: two-hybrid library CCNG1
T56 chain: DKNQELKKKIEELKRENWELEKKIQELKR

[57] = target: T57, 4H3974-bH; assay: two-hybrid library CCNG1
T57 chain: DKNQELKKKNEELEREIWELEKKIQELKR

[58] = target: T58, 4H570-bH; assay: two-hybrid library CCNG1
T58 chain: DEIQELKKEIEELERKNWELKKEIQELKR

[59] = target: T59, 4H591-bH; assay: two-hybrid library CCNG1
T59 chain: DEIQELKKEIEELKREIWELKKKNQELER

[60] = target: T60, 4H626-bH; assay: two-hybrid library CCNG1
T60 chain: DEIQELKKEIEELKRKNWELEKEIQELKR

[61] = target: T61, 4H730-bA; assay: two-hybrid library CCNG1
T61 chain: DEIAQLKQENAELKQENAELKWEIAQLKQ

[62] = target: T62, 4H850-bH; assay: two-hybrid library CCNG1
T62 chain: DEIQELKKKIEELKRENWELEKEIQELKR

[63] = target: T63, 4H906-bH; assay: two-hybrid library CCNG1
T63 chain: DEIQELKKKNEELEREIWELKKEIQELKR

[64] = target: T64, 4H932-bN; assay: two-hybrid library CCNG1
T64 chain: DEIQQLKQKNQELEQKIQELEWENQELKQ

[65] = target: T65, O8; assay: two-hybrid library CCNG1
T65 chain: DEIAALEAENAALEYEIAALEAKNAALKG

## DKIEELKRKNRELKEKNKELKEKIYRLKE [P2SHb]
[1]
  interaction score: -0.669
[2]
  interaction score: -0.091
[3]
  interaction score: 0.291
[4]
  interaction score: 0.588
[5]
  interaction score: 0.195
[6]
  interaction score: 0.49
[7]
  interaction score: -0.265
[8]
  interaction score: -1.55

## DENAALEAKIAALKAKIAALKAENAALKG [4H1388-AA]
[9]
  interaction score: -0.698
[10]
  interaction score: -2
[11]
  interaction score: -0.0302
[12]
  interaction score: -1.66
[13]
  interaction score: -1.24
[14]
  interaction score: -1.71
[15]
  interaction score: -1.59
[16]
  interaction score: -1.08
[17]
  interaction score: -1.78
[18]
  interaction score: -0.829
[19]
  interaction score: -0.0212
[20]
  interaction score: -0.194
[21]
  interaction score: -0.775
[22]
  interaction score: -1.68
[23]
  interaction score: -1.57
[24]
  interaction score: -1.45
[25]
  interaction score: 2.52
[26]
  interaction score: -1.68
[27]
  interaction score: -0.251
[28]
  interaction score: -1.7
[29]
  interaction score: 2.13
[30]
  interaction score: 0.583
[31]
  interaction score: 0.242
[32]
  interaction score: -1.77
[33]
  interaction score: -0.0337
[34]
  interaction score: -0.356
[35]
  interaction score: -1.23
[36]
  interaction score: -1.54
[37]
  interaction score: -2.08

## DENQELEKKIEELKRENWELKKKIQELER [4H1373-bH]
[38]
  interaction score: 0.778
[39]
  interaction score: -1.04
[40]
  interaction score: -0.374
[41]
  interaction score: -2.29
[42]
  interaction score: -2
[43]
  interaction score: 0.5
[44]
  interaction score: 0.645
[45]
  interaction score: 0.281
[46]
  interaction score: -0.681
[47]
  interaction score: 0.0783
[48]
  interaction score: -0.048
[49]
  interaction score: -0.763
[50]
  interaction score: 0.423
[51]
  interaction score: -1.36
[52]
  interaction score: -0.345
[53]
  interaction score: -0.502
[54]
  interaction score: -0.0729
[55]
  interaction score: 0.654
[56]
  interaction score: 1.67
[57]
  interaction score: 0.369
[58]
  interaction score: 0.082
[59]
  interaction score: -0.84
[60]
  interaction score: -0.984
[61]
  interaction score: -0.488
[62]
  interaction score: -0.156
[63]
  interaction score: -0.627
[64]
  interaction score: 0.58
[65]
  interaction score: -0.719
